Earlier results in PMC6721559.
pKd: −log10 of the molar value.

Molecular target: Ubc9 (Homo sapiens) (UniProt P63279)
Chain of UniProt P63279 (P63279 2-158): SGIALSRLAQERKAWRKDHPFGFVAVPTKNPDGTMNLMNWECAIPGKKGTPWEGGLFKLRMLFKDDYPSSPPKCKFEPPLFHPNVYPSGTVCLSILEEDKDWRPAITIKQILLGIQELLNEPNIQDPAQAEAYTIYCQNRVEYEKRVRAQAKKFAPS

pKd: 7.09
Substance: SUMO (from UniProt P63165)
